In patent publication US11059903B2, “Anti-PSMA antibodies, uses thereof and conjugates thereof” (Polytherics Limited, priority 2016, dated 2021):
Square brackets hold non-standard residues; d marks the D form. Peptide text beside a SMILES is read from it. * marks the point of attachment. Dolaproine = CO[C@@H]([C@@H]1CCCN1)[C@@H](C)C(=O)O; Dil = CC[C@H](C)[C@H](NC)[C@@H](CC(=O)O)OC; X1 = C[C@@H](N*)[C@@H](O)c1ccccc1; NMeV = CN[C@H](C(=O)O)C(C)C

Columns and labels:
[1] = Heat stress test, aggregation analysed by SEC; format: physicochemical
Description: Antibody samples (0.5 mg/mL in PBS) were incubated at 75° C. for 30 min followed by incubation in an ice-bath for 5 min prior to being analysed for their extent of aggregation. Analysis of antibody solutions was carried out by Size Exclusion Chromatography (SEC) and by turbidity measurements.
SEC was performed using a TOSOH Bioscience TSK gel Super SW 3000 column. UV absorbance at 280 nm was monitored during an isocratic elution with a 0.2 M Potassium phosphate buffer, pH 6.8 (0.2 M potassium chloride and 15% isopropanol). The elution times and number of peaks indicate whether the sample contains aggregated, degraded or native antibody. The % area under the curve (Abs280) was used to determine the quantity of each species present in the SEC analysis.

LNCaP cells = experiment: In vitro cell viability assay (CellTiter Glo) on LNCaP cells; format: cell-based; settings: anti-proliferative effect, 96 h
Description: (§1) The in vitro efficacies of ADCs 1 to 7, prepared as described within Example 4, were determined by measuring their inhibitory effect upon cell growth of PSMA over-expressing cancer cell lines.
(§2) Loss of tumour cell viability following treatment with cytotoxic drugs or ADCs in vitro can be measured by growing cell lines in the presence of increasing concentrations of drugs or ADCs and quantifying the loss of proliferation or metabolic activity using CellTiter Glo® Luminescence reagent (Promega Corp.). The protocol describes cell seeding, drug treatment and determination of the cell viability in reference to untreated cells based on ATP synthesis, which is directly related to the number of cells present in the well. […]
(§3) The cell viability assay was carried out using the Cell-Titer Glo® Luminescence reagent, as described by the manufacturer's instructions, (Promega Corp. Technical Bulletin TB288; Lewis Phillips G. D, Cancer Res 2008; 68:9280-9290). Luminescence was recorded using a plate reader (e.g. Molecular Devices Spectramax M3 plate reader), and data subsequently analysed using a four parameter non-linear regression model. […]
(§4) PSMA-positive LNCaP (clone FGC) and C4-2 cells were detached with TrypLE and resuspended in complete medium. Cells were counted using disposable Neubauer counting chambers and cell density adjusted to 10×10^4 cells/mL for LNCaP and 2×10^4 cells/mL for C4-2. […]

C4-2 cells = experiment: In vitro cell viability assay (CellTiter Glo) on C4-2 cells; format: cell-based; settings: anti-proliferative effect, 96 h
Description: as §1, §2, §3, §4

[2] = post stress test: 0.5 mg/mL in PBS, 75° C. for 30 min, SEC % area

Molecule	Stability compared with AB-02 to AB-06 antibodies ([1]; heat stress test, in words)	Ab in aggregated form (%) [1, 2] [%]	Ab in native conformation (%) [1, 2] [%]	IC50 (LNCaP cells) [nM]	IC50 (C4-2 cells) [nM]
AB-10: Prior art de-immunised J591 anti-PSMA antibody, heavy chain SEQ ID No 3, light chain SEQ ID No 4 [reference compound]	less stable	99.6	0.4		
CC[C@H](C)[C@@H]([C@@H](CC(=O)N1CCC[C@H]1[C@H](OC)[C@@H](C)C(=O)N[C@H](C)[C@@H](O)c1ccccc1)OC)N(C)C(=O)[C@@H](NC(=O)[C@@H](NC)C(C)C)C(C)C [MMAE] (H-[NMeV]V[Dil][Dolaproine]-X1)				2.23	0.63
